Measurements: US20050202008A1 (Genentech, published 2005)

B1: CD95 immunoadhesin (Fc fusion, UniProt P25445 26-173, looked up)
chain: QVTDINSKGLELRKTVTTVETQNLEGLHHDGQFCHKPCPPGERKARDCTVNGDEPDCVPCQEGKEYTDKAHFSSKCRRCRLCDEGHGLEVEINCTRTQNTKCRCKPNFFCNSTVCEHCDPCTKCEHGIIKECTLTSNTKCKEEGSRSN
notes: extracellular domain; also called CD95-IgG; Fas-IgG; not shown: hinge and Fc portion of human IgG; made as described for TNFR1 in Ashkenazi et al. 1991 (IgG1 from)
B2: full-length PRO175 polypeptide on cells (ligand)
chain: MCLSHLENMPLSHSRTQGAQRSSWKLWLFCSIVMLLFLCSFSWLIFIFLQLETAKEPCMAKFGPLPSKWQMASSEPPCVNKVSDWKLEILQNGLYLIYGQVAPNANYNDVAPFEVRLYKNKDMIQTLTNKSKIQNVGGTYELHVGDTIDLIFNSEHQVLKNNTYWGIILLANPQFIS
notes: Human 293 cells were transiently transfected with full-length PRO175, co-transfected with CD4 for gating; also called PRO175 on transfected 293 cells; PRO175 on HUVEC
B3: PRO364-IgG (soluble immunoglobulin fusion protein of the PRO364 extracellular domain) (Fc fusion)
chain: QRPTGGPGCGPGRLLLGTGTDARCCRVHTTRCCRDYPGEECCSEWDCMCVQPEFHCGDPCCTTCRHHPCPPGQGVQSQGKFSFGFQCIDCASGTFSGGHEGHCKPWTDCTQFGFLTVFPGNKTHNAVCVPGSPPAE
notes: Expressed in insect cells with Baculovirus; also called PRO364 immunoadhesin; PRO364 ECD C-terminus IgG-Fc tagged form; not shown: IgG-Fc at the C-terminus
B4: soluble PRO175 polypeptide (PRO175 ECD, E. coli, Met-Gly-His10-enterokinase-site tagged) (ligand)
chain: MGHHHHHHHHHHSSGHIDDDDKHMETAKEPCMAKFGPLPSKWQMASSEPPCVNKVSDWKLEILQNGLYLIYGQVAPNANYNDVAPFEVRLYKNKDMIQTLTNKSKIQNVGGTYELHVGDTIDLIFNSEHQVLKNNTYWGIILLANPQFIS
modifications: labeled with 125I (residues not stated)
notes: also called soluble PRO175 ECD molecule; radioiodinated soluble PRO175 polypeptide

Key:
[1] = biological target: B2; assay: FACS on HUVEC (endogenous PRO175)
Procedure: (§1) The PRO175 polypeptide was identified in a human umbilical vein endothelial cell (HUVEC) library, and the PRO175 polypeptide transcripts are readily detectable in HUVEC by RT-PCR (data not shown). […] HUVEC were purchased from Cell Systems (Kirkland, Wash.) and grown in a 50:50 mix of Ham=s F 12 and Low Glucose DMEM media containing 10% fetal bovine serum, 2 mM L-glutamine, 10 mM Hepes, and 10 ng/ml basic FGF. Cells were FACS sorted with PBS, PRO364-IgG, TNFR1-IgG or Fas-IgG as a primary antibody and goat anti-human F(ab=)₂ conjugated to phycoerythrin (CalTag, Burlingame, Calif.).

[2] = biological target: T1, TNFR1 immunoadhesin (human, UniProt P19438 30-211, limits assumed); assay: FACS on HUVEC (endogenous PRO175)
T1 construct: extracellular domain; also called TNFR1-IgG; TNFR 1-IgG; not shown: hinge and Fc portion of human IgG
T1 sequence (looked up): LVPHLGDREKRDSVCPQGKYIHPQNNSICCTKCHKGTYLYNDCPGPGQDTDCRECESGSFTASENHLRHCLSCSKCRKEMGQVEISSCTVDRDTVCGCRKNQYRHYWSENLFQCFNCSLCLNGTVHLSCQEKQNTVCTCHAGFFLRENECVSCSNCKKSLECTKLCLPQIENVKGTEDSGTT
Procedure: as §1

[3] = biological target: B2; assay: FACS on 293 cells transiently transfected with full-length PRO175
Procedure: In another assay, human 293 cells were transiently transfected with full-length PRO175 and the ability of receptor immunoadhesin constructs for PRO364, TNFR1, HVEM, and DcR1 to bind to those transfected cells was determined by FACS analysis. The 293 cells were maintained in high glucose DMEM media supplemented with 10% fetal bovine serum (FBS), 2 mM glutamine, 100 microgram/ml penicillin, and 100 microgram/ml streptomycin. The transfected cells ([…]) were incubated for 60 minutes at 4° C. in 200 microliters 2% FBS/PBS with 1 microgram of the respective receptor or ligand immunoadhesin. The cells were then washed with 2% FBS/PBS, stained with R-phycoerythrin-conjugated goat anti-human antibody (Jackson Immunoresearch, West Grove, Pa.). Next, the cells were analyzed by FACS. To test the binding of the respective immunoadhesins to the transiently transfected cells, an expression vector (pRK5-CD4; Smith et al., Science, 328:1704-1707 (1987)) for CD4 was co-transfected with PRO175 expression vector (see above). FITC-conjugated anti-CD4 (Pharmingen, San Diego, Calif.) was then used to identify and gate the transfected cell population in the FACS analysis.

[4] = biological target: T1, TNFR1 immunoadhesin; assay: co-precipitation with protein A-sepharose, SDS-PAGE, autoradiography
Procedure: (§2) The soluble PRO175 ECD molecule was abeled with ¹²⁵I, for testing its ability to interact with the PRO364 immunoadhesin. For comparison, immunoadhesin constructs were also made of the following TNF receptor family members: CD95, DR4, DR5, TNFR1, TNFR2, and Apo-3. CD95, DR4, DR5, TNFR1, TNFR2, and Apo-3 immunoadhesins were prepared by fusing each receptor's ECD to the hinge and Fc portion of human IgG, as described previously for TNFR1 [Ashkenazi et al., Proc. Natl. Acad. Sci., 88:10535-10539 (1.991)]. The respective TNF receptor family members are described (and relevant references cited) in the Background of the Invention section.
(§3) For the co-precipitation assay, each immunoadhesin (5 microgram) was incubated with ¹²⁵I-labeled soluble PRO175 polypeptide (I microgram) for 1 hour at 24° C., followed by protein A-sepharose for 30 minutes on ice. The reaction mixtures were spun down and washed several times in PBS, boiled in SDS-PAGE buffer containing 20 mM dithiothreitol and then resolved by SDS-PAGE and autoradiography.

[5] = biological target: T2, TNFR2 immunoadhesin (human, UniProt P20333 23-257, limits assumed); assay: as above
T2 construct: extracellular domain; also called TNFR2-IgG; not shown: hinge and Fc portion of human IgG; made as described for TNFR1 in Ashkenazi et al. 1991 (IgG1 from)
T2 sequence (looked up): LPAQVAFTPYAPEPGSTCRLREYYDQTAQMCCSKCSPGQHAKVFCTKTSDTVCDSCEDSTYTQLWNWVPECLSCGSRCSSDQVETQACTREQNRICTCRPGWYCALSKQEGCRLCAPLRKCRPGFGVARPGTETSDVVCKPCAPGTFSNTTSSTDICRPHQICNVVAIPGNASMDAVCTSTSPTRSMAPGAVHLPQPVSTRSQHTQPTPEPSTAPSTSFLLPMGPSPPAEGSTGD
Procedure: as §2, §3

[6] = biological target: T3, DR4 immunoadhesin (human, UniProt O00220 24-239, limits assumed); assay: as above
T3 construct: extracellular domain; also called DR4-IgG; not shown: hinge and Fc portion of human IgG; made as described for TNFR1 in Ashkenazi et al. 1991 (IgG1 from)
T3 sequence (looked up): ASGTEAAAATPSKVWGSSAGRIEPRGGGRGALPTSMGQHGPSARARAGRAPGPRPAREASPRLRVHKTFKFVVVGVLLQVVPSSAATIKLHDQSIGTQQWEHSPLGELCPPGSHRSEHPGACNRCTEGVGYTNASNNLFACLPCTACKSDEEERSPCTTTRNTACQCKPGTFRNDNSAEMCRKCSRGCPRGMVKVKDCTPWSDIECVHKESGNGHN
Procedure: as §2, §3

[7] = biological target: T4, DR5 immunoadhesin (human, UniProt O14763 56-210, limits assumed); assay: as above
T4 construct: extracellular domain; also called DR5-IgG; Apo-2; not shown: hinge and Fc portion of human IgG; made as described for TNFR1 in Ashkenazi et al. 1991 (IgG1 from)
Procedure: as §2, §3

[8] = biological target: B1; assay: as above
Procedure: as §2, §3

[9] = biological target: T5, Apo-3 immunoadhesin (human, UniProt Q93038 25-199); assay: as above
T5 construct: extracellular domain; also called Apo-3-IgG; DR3; not shown: hinge and Fc portion of human IgG; made as described for TNFR1 in Ashkenazi et al. 1991 (IgG1 from)
T5 sequence (looked up): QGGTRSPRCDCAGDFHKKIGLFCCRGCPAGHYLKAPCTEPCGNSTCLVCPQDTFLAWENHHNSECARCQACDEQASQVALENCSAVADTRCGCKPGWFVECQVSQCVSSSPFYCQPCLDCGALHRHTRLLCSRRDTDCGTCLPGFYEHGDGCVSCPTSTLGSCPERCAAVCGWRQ
Procedure: as §2, §3

**Q.** Does B1 bind [1]?
**A.** no binding

**Q.** Does B2 bind [2]?
**A.** no binding

**Q.** Does B3 bind [3]?
**A.** binds

**Q.** Does B4 bind [4]?
**A.** no binding

**Q.** Does B4 bind [5]?
**A.** no binding

**Q.** Does B4 bind [6]?
**A.** no binding

**Q.** Does B4 bind [7]?
**A.** no binding

**Q.** Does B4 bind [8]?
**A.** no binding

**Q.** Does B4 bind [9]?
**A.** no binding
